The record followed here is publication PMC11672753.

Experiment [1] addresses S15-HDEL (human).
The target in experiment [2] is S15-FX (human).
S15-FX (human), sequence (heavy, as listed by the source, chain 1 of 2): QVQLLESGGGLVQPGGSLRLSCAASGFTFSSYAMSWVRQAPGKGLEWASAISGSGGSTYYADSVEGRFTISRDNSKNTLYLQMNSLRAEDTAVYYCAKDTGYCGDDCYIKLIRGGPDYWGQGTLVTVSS
S15-FX (human), sequence (light, as listed by the source, chain 2 of 2): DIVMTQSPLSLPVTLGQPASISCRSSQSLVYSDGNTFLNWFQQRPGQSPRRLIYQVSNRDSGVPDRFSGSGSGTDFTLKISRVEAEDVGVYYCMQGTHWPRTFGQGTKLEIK

S15-HDEL (human), sequence (heavy, as listed by the source, chain 1 of 2): as the sequence (heavy, as listed by the source, chain 1 of 2) above
S15-HDEL (human), sequence (light, as listed by the source, chain 2 of 2): as the sequence (light, as listed by the source, chain 2 of 2) above

On to “FcγRIIIa-dimer, biotinylated (from UniProt P08637 17-254) (receptor)”, for which the NK cell activation (CD107 and IFNγ expression) by antigen-bound antibody, against the WT plant antibody in experiment [1] and in experiment [2] was 3 fold in each case.
